# Assay results taken from patent US12454527B2, “Conjugate monomethyl auristatin E to obtain a composition for treatment of prostate cancer” (priority 2019, dated 2025).
# “And” between values parts separate entries of the source, which are not always exact repeats. Identical values can stand only once. Like-named read-outs stand apart in the source and are kept apart here. Starred links: 1 amine or outer side, 2 acyl side, 3 side chain; linkers in the order of their positions; H or OH if unused. Non-standard residues stand in square brackets, D forms with d. Residues, ends and D or L forms follow the SMILES beside them. ξ: configuration not given here. *: point of attachment. GluureaLys(ε-3-ClBenzyl) = O=C(O)CC[C@H](NC(=O)N[C@@H](CCCCN(Cc1cccc(Cl)c1)*)C(=O)O)C(=O)O; Dolaproine = CO[C@@H]([C@@H]1CCCN1)[C@@H](C)C(=O)O; Dil = CC[C@H](C)[C@H](NC)[C@@H](CC(=O)O)OC; X1 = O=C(CCCc1cn(CCCN[*:1])nn1)[*:2]; PABC = O=C(OCc1ccc(N[*:1])cc1)[*:2]; X2 = C[C@@H](N*)[C@@H](O)c1ccccc1; Cit = NC(=O)NCCC[C@H](N)C(=O)O; Suc = O=C(CCC(=O)[*:2])[*:1]; NMeV = CN[C@H](C(=O)O)C(C)C; ξV = CC(C)C(N)C(=O)O; Ahx = NCCCCCC(=O)O
# What was measured:
# [1] = test system: 22Rv1 prostate cancer s.c. xenografts; test: Antineoplastic efficacy on 22Rv1 prostate cancer xenograft model (tumor growth inhibition); type: in vivo, mice; details: for Tumor volume, V mean / TGI %: 22Rv1; for Tumor volume, V mean / TGI % / Tumor volume (individual tumors): 0.3 mg/kg i.p. x3; for TGI %: vs TGC; for Tumor volume (individual tumors): 22Rv1 s.c. xenograft, 0.3 mg/kg
# Excerpt: The evaluation of antineoplastic Conjugate (I) efficacy on xenograft model of prostate cancer.
# To study the drug efficacy the xenograft model was selected as a quite illustrative one for preclinical studies (Application of Prostate Cancer Models for Preclinical Study: Advantages and Limitations of Cell Lines, Patient-Derived Xenografts, and Three-Dimensional Culture of Patient-Derived Cells Takeshi Namekawa, Kazuhiro Kuniko Horie-Inoue, Satoshi Inoue Cells, 2019 January; 8(1), The criteria of antineoplastic activity were tumor growth inhibition (TGI) (Experimental assessment of antineoplastic agents in the USSR and USA/IEd. Ed. Sophyina Z. P., Syrkin A. B., Goldin F., Klein I.//J.: Medicine, 1980) in treated animals (Pon) compared with control (Pk), expressed as a percentage: […]
# The treatment in all groups was started when tumor nodes were appeared.
# Tumor growth was times at the end of study (Table 1).
# [2] = Pharmacokinetics in plasma of rabbits after a single injection; type: in vivo; details: male, Soviet Chinchilla, rabbit, plasma; for level at 0.5 h: 0.50 hour; for level at 1.5 h: 1.50 hour
# Excerpt: The pharmacokinetics study for the Conjugate (I) product in plasma of rabbits and rats after a single injection.
# The leporids and rodents are the standard targets for preclinical studies of potential drug products as well as determining the pharmacokinetic parameters. The rabbits and rats are recommended as test systems to study pharmacokinetic properties of pharmaceutical products by the regulatory documents (FIG. 7, FIG. 8).
# […] The pharmacokinetic data, determined from this number of test animals, are sufficient to obtain the primary quantitative characteristics of test product distribution and elimination and the calculation of descriptive statistics parameters.
# • 1. Conjugate (1) • 2. Solubilizer Pluronic F127—in the amount, five-fold greater than the conjugate amount by weight. • 3, Diluent—Haemodes infusion solution. • Dimethyl sulfoxide—in the amount of 5% of the prepared volume. • Rabbit experiment (see Tables 5, 6), • Rat experiment (see Tables 7, 8).
# [3] = rabbits N=6, read-out: Concentration in blood plasma, Geometr. mean
# [4] = rabbits N=6, read-out: Concentration in blood plasma, Mean value
# [5] = rabbits N=6, read-out: Concentration in blood plasma, Median
structure (smiles),measurement,setting,value
CC[C@H](C)[C@@H]([C@@H](CC(=O)N1CCC[C@H]1[C@H](OC)[C@@H](C)C(=O)N[C@H](C)[C@@H](O)c1ccccc1)OC)N(C)C(=O)[C@@H](NC(=O)[C@H](C(C)C)N(C)C(=O)OCc1ccc(NC(=O)[C@H](CCCNC(N)=O)NC(=O)C(NC(=O)CCCc2cn(CCCNC(=O)[C@H](Cc3ccc(O)cc3)NC(=O)[C@H](Cc3ccccc3)NC(=O)CCC(=O)NCCCCCC(=O)N(CCCC[C@H](NC(=O)N[C@@H](CCC(=O)O)C(=O)O)C(=O)O)Cc3cccc(Cl)c3)nn2)C(C)C)cc1)C(C)C (stereo partly shown) [Conjugate (I)] ({GluureaLys(ε-3-ClBenzyl)-Ahx-Suc}-FY[X1][ξV][Cit][PABC][NMeV]V[Dil][Dolaproine]-X2),"Tumor volume, V mean",[1]; day 1,28 mm^3
same,TGI %,[1]; day 1 after treatment completion,83%
same,"Tumor volume, V mean",[1]; day 4,83 mm^3
same,TGI %,[1]; day 4,85%
same,"Tumor volume, V mean",[1]; day 8,341 mm^3
same,TGI %,[1]; day 8,70%
same,Tumor volume (individual tumors),[1]; day 1 after treatment,22 mm^3 and 17 mm^3 (2×) and 45 mm^3 and 14 mm^3 and 19 mm^3 and 30 mm^3 (2×) and 32 mm^3 and 31 mm^3 and 51 mm^3 and 34 mm^3 and 18 mm^3 and 40 mm^3
same,Tumor volume (individual tumors),[1]; day 4 after treatment,72 mm^3 (2×) and 42 mm^3 and 75 mm^3 and 38 mm^3 and 78 mm^3 and 173 mm^3 and 63 mm^3 and 108 mm^3 and 115 mm^3 and 65 mm^3 and 74 mm^3 and 102 mm^3 and 81 mm^3
same,Tumor volume (individual tumors),[1]; day 8 after treatment,346 mm^3 and 111 mm^3 and 369 mm^3 and 186 mm^3 and 463 mm^3 and 597 mm^3 and 570 mm^3 and 314 mm^3 and 853 mm^3 and 177 mm^3 and 247 mm^3 and 349 mm^3 and 94 mm^3 and 96 mm^3
same,Dose achieving effective tumor growth inhibition (TGI),"[1]; mouse, in vivo",approximately 0.3 mg/kg
same,AUC0-t,"[2]; intravenous, 0.81 mg/kg, rabbits N=6, read-out: AUC0-t, Geometr. mean",30200 ng·h/mL
same,AUC0-t,"[2]; intravenous, 0.81 mg/kg, rabbits N=6, read-out: AUC0-t, Mean value",30700 ng·h/mL
same,AUC0-t,"[2]; intravenous, 0.81 mg/kg, rabbits N=6, read-out: AUC0-t, Median",30200 ng·h/mL
same,AUC(0-inf),"[2]; intravenous, 0.81 mg/kg, rabbits N=6, read-out: AUC0-∞, Geometr. mean",34700 ng·h/mL
same,AUC(0-inf),"[2]; intravenous, 0.81 mg/kg, rabbits N=6, read-out: AUC0-∞, Mean value",35100 ng·h/mL
same,AUC(0-inf),"[2]; intravenous, 0.81 mg/kg, rabbits N=6, read-out: AUC0-∞, Median",36100 ng·h/mL
same,MRT last,"[2]; intravenous, 0.81 mg/kg, rabbits N=6, read-out: MRT0-t, Geometr. mean",3.43 h
same,MRT last,"[2]; intravenous, 0.81 mg/kg, rabbits N=6, read-out: MRT0-t, Mean value",3.44 h
same,MRT last,"[2]; intravenous, 0.81 mg/kg, rabbits N=6, read-out: MRT0-t, Median",3.38 h
same,half-life,"[2]; intravenous, 0.81 mg/kg, rabbits N=6, read-out: T1/2, Geometr. mean (converted)",260 min
same,half-life,"[2]; intravenous, 0.81 mg/kg, rabbits N=6, read-out: T1/2, Mean value (converted)",275 min
same,half-life,"[2]; intravenous, 0.81 mg/kg, rabbits N=6, read-out: T1/2, Median (converted)",275 min
same,Vd,"[2]; intravenous, 0.81 mg/kg, rabbits N=6, read-out: Vd, Geometr. mean",0.146 L/kg
same,Vd,"[2]; intravenous, 0.81 mg/kg, rabbits N=6, read-out: Vd, Mean value",0.158 L/kg
same,Vd,"[2]; intravenous, 0.81 mg/kg, rabbits N=6, read-out: Vd, Median",0.144 L/kg
same,AUC0-t,"[2]; intravenous, 0.81 mg/kg, rabbits, individual animals, read-out: AUC0-t",31400 ng·h/mL
same,AUC(0-inf),"[2]; intravenous, 0.81 mg/kg, rabbits, individual animals, read-out: AUC0-∞",35300 ng·h/mL
same,C0,"[2]; intravenous, 0.81 mg/kg, rabbits, individual animals, read-out: C0",10700 ng/mL
same,MRT last,"[2]; intravenous, 0.81 mg/kg, rabbits, individual animals, read-out: MRT0-t",3.12 h
same,level at 0.08 h,[2]; [3],10300 ng/mL
same,level at 0.08 h,[2]; [4],10500 ng/mL
same,level at 0.08 h,[2]; [5],9600 ng/mL
same,level at 0.25 h,[2]; [3],9410 ng/mL
same,level at 0.25 h,[2]; [4],9670 ng/mL
same,level at 0.25 h,[2]; [5],9840 ng/mL
same,level at 0.5 h,[2]; [3],7410 ng/mL
same,level at 0.5 h,[2]; [4],7580 ng/mL
same,level at 0.5 h,[2]; [5],7100 ng/mL
same,level at 1 h,[2]; [3],6040 ng/mL
same,level at 1 h,[2]; [4],6160 ng/mL
same,level at 1 h,[2]; [5],5890 ng/mL
same,level at 1.5 h,[2]; [4],5120 ng/mL
same,level at 1.5 h,[2]; [5],4970 ng/mL
same,level at 2 h,[2]; [3],4570 ng/mL
same,level at 2 h,[2]; [4],4630 ng/mL
same,level at 2 h,[2]; [5],4510 ng/mL
same,level at 3 h,[2]; [3],3440 ng/mL
same,level at 3 h,[2]; [4],3520 ng/mL
same,level at 3 h,[2]; [5],3650 ng/mL
